1 variant from IntAct's records for PubMed 20581830 can be followed below.

B1: Interferon regulatory factor 3 (Homo sapiens), Q14653 (parent)
chain: MGTPKPRILPWLVSQLDLGQLEGVAWVNKSRTRFRIPWKHGLRQDAQQEDFGIFQAWAEATGAYVPGRDKPDLPTWKRNFRSALNRKEGLRLAEDRSKDPHDPHKIYEFVNSGVGDFSQPDTSPDTNGGGSTSDTQEDILDELLGNMVLAPLPDPGPPSLAVAPEPCPQPLRSPSLDNPTPFPNLGPSENPLKRLLVPGEEWEFEVTAFYRGRQVFQQTISCPEGLRLVGSEVGDRTLPGWPVTLPDPGMSLTDRGVMSYVRHVLSCLGGGLALWRAGQWLWAQRLGHCHTYWAVSEELLPNSGHGPDGEVPKDKEGGVFDLGPFIVDLITFTEGSGRSPRYALWFCVGESWPQDQPWTKRLVMVKVVPTCLRALVEMARVGGASSLENTVDLHISNSHPLSLTSDQYKAYLQDLVEGMDFQGPGES

Variants of B1 are the subject of the assay. The note with it: with cbp_human CREBBP.
As for S396D;S398D;S402D;T404D;S405D, the “effect of a mutation on the interaction” value was “increasing interaction strength”.
